Experimental findings from PMC5993824 (Nature Communications, 2018) are described below.

This assay has as its target T1, GST-CypA (UniProt P62937 1-165).
T1 construct: cyclophilin A fused to GST; source: E. coli BL21, purified on glutathione-agarose
The assay is described as follows: pull-down; GST proteins (GST, GST-CypA, GST-FKBP12) on glutathione sepharose (10 µl) added to HEK 293 T lysate (50 µl diluted to 500 µL with lysis buffer) of cells transfected with an empty (pCi) or Tat vector; 1 h at 4 °C; three washes with lysis buffer; western blots. Conditions: one partner purified.

T1 sequence (P62937 whole entry, the tested form may be a part): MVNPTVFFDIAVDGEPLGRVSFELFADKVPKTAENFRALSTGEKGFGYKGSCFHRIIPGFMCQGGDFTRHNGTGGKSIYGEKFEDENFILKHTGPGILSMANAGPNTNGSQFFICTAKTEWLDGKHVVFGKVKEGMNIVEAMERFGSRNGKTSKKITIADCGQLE

B1: DHHC-20 (enzyme, human (endogenous in HEK 293 T), UniProt Q5W0Z9 1-365, looked up)
chain: MAPWTLWRCCQRVVGWVPVLFITFVVVWSYYAYVVELCVFTIFGNEENGKTVVYLVAFHLFFVMFVWSYWMTIFTSPASPSKEFYLSNSEKERYEKEFSQERQQEILRRAARALPIYTTSASKTIRYCEKCQLIKPDRAHHCSACDSCILKMDHHCPWVNNCVGFSNYKFFLLFLLYSLLYCLFVAATVLEYFIKFWTNELTDTRAKFHVLFLFFVSAMFFISVLSLFSYHCWLVGKNRTTIESFRAPTFSYGPDGNGFSLGCSKNWRQVFGDEKKYWLLPIFSSLGDGCSFPTRLVGMDPEQASVTNQNEYARSSGSNQPFPIKPLSESKNRLLDSESQWLENGAEEGIVKSGTNNHVTVAIEN
notes: S-acyl transferase DHHC-20, detected with anti-DHHC-20 (Sigma SAB 4501054); also called S-acyl transferase DHHC-20; source: endogenous, HEK 293 T lysate
For B1, the “fold more pulled down from extracts of Tat-transfected cells against empty-vector cells” value is around 4 fold.
